# Measured values taken from IntAct's records for PubMed 22001206.
# B1: Dipeptidyl peptidase 4 (Homo sapiens), P27487 (parent)
# chain: MKTPWKVLLGLLGAAALVTIITVPVVLLNKGTDDATADSRKTYTLTDYLKNTYRLKLYSLRWISDHEYLYKQENNILVFNAEYGNSSVFLENSTFDEFGHSINDYSISPDGQFILLEYNYVKQWRHSYTASYDIYDLNKRQLITEERIPNNTQWVTWSPVGHKLAYVWNNDIYVKIEPNLPSYRITWTGKEDIIYNGITDWVYEEEVFSAYSALWWSPNGTFLAYAQFNDTEVPLIEYSFYSDESLQYPKTVRVPYPKAGAVNPTVKFFVVNTDSLSSVTNATSIQITAPASMLIGDHYLCDVTWATQERISLQWLRRIQNYSVMDICDYDESSGRWNCLVARQHIEMSTTGWVGRFRPSEPHFTLDGNSFYKIISNEEGYRHICYFQIDKKDCTFITKGTWEVIGIEALTSDYLYYISNEYKGMPGGRNLYKIQLSDYTKVTCLSCELNPERCQYYSVSFSKEAKYYQLRCSGPGLPLYTLHSSVNDKGLRVLEDNSALDKMLQNVQMPSKKLDFIILNETKFWYQMILPPHFDKSKKYPLLLDVYAGPCSQKADTVFRLNWATYLASTENIIVASFDGRGSGYQGDKIMHAINRRLGTFEVEDQIEAARQFSKMGFVDNKRIAIWGWSYGGYVTSMVLGSGSGVFKCGIAVAPVSRWEYYDSVYTERYMGLPTPEDNLDHYRNSTVMSRAENFKQVEYLLIHGTADDNVHFQQSAQISKALVDVGVDFQAMWYTDEDHGIASSTAHQHIYTHMSHFIKQCFSLP
# partner: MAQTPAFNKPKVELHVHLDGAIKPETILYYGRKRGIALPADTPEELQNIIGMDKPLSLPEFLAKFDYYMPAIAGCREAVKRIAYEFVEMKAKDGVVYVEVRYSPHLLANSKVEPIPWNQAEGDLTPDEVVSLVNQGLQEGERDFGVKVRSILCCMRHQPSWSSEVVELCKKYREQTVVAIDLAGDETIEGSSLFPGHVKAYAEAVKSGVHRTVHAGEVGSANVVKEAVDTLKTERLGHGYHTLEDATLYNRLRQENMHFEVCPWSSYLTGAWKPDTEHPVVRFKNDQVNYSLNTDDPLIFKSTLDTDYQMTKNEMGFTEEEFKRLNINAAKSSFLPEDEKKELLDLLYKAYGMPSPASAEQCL
# Variants of: B1
# Conditions: with ada_bovin ADA
row,Variant,effect of a mutation on the interaction
1,Y256A,decreasing interaction

# Variants of: B1
# Conditions: with ada_bovin ADA
# Remark: another data set of the same source
row,Variant,effect of a mutation on the interaction
1,Y248A,decreasing interaction

# Variants of: B1
# Conditions: with ada_bovin ADA
# Remark: another data set of the same source
row,Variant,effect of a mutation on the interaction
1,Y238A,decreasing interaction
